B1: P54AR4-83v2 T68C, NEM conjugate (designed binder, not shown: small tags and cut ends)
chain: LPAPKNLVVSEVTEDSARLSWDDPWAFYESFLIQYQESEKVGEAIVLTVPGSERSYDLTGLKPGTEYCVSIYGVHNVYKDTNMRGLPLSAIFTT
modifications: N-ethyl maleimide (NEM) on Cys 68
notes: not used
B2: P54AR4-83v2 V49C, NEM conjugate (designed binder, not shown: small tags and cut ends)
chain: B1 chain with V49C, C68T
modifications: N-ethyl maleimide (NEM) on Cys 49
B3: P54AR4-83v2 V74C, NEM conjugate (designed binder, not shown: small tags and cut ends)
chain: B1 chain with C68T, V74C
modifications: N-ethyl maleimide (NEM) on Cys 74
B4: P54AR4-83v2 V46C, NEM conjugate (designed binder, not shown: small tags and cut ends)
chain: B1 chain with V46C, C68T
modifications: N-ethyl maleimide (NEM) on Cys 46
B5: P54AR4-83v2 V41C, NEM conjugate (designed binder, not shown: small tags and cut ends)
chain: B1 chain with V41C, C68T
modifications: N-ethyl maleimide (NEM) on Cys 41
B6: P54AR4-83v2 V9C, NEM conjugate (designed binder, not shown: small tags and cut ends)
chain: B1 chain with V9C, C68T
modifications: N-ethyl maleimide (NEM) on Cys 9
B7: P54AR4-83v2 Y28C, NEM conjugate (designed binder, not shown: small tags and cut ends)
chain: B1 chain with Y28C, C68T
modifications: N-ethyl maleimide (NEM) on Cys 28
B8: P54AR4-83v2 T81C, NEM conjugate (designed binder, not shown: small tags and cut ends)
chain: B1 chain with C68T, T81C
modifications: N-ethyl maleimide (NEM) on Cys 81
B9: P54AR4-83v2 T93C, NEM conjugate (designed binder, not shown: small tags and cut ends)
chain: B1 chain with C68T, T93C
modifications: N-ethyl maleimide (NEM) on Cys 93
B10: P54AR4-83v2 V12C, NEM conjugate (designed binder, not shown: small tags and cut ends)
chain: B1 chain with V12C, C68T
modifications: N-ethyl maleimide (NEM) on Cys 12
B11: P54AR4-83v2 W25C, NEM conjugate (designed binder, not shown: small tags and cut ends)
chain: B1 chain with W25C, C68T
modifications: N-ethyl maleimide (NEM) on Cys 25
B12: P54AR4-83v2 V8C, NEM conjugate (designed binder, not shown: small tags and cut ends)
chain: B1 chain with V8C, C68T
modifications: N-ethyl maleimide (NEM) on Cys 8
B13: P54AR4-83v2 V77C, NEM conjugate (designed binder, not shown: small tags and cut ends)
chain: B1 chain with C68T, V77C
modifications: N-ethyl maleimide (NEM) on Cys 77

Numbering of substitutions follows the chain as printed. Numbers in names are those of the source.

For the first test, the target named is T1, EGFR (form used in the assay not stated) (human, UniProt P00533 25-645, limits assumed). Description: ELISA, NEM conjugate, 10 nM. For orientation: In an ELISA, binding on a coated surface is turned into a signal by an enzyme label.
On to B1, for which the “binding relative to P54AR4-83v2 parent” value is 0.83 ratio.
On the same count and under the same terms, for B2 the value was 0.96 ratio; for B3, 0.76 ratio; for B4, 0.61 ratio.
On the same count and under the same terms, the result for B5 reads 0.92 ratio; that for B6, 0.94 ratio.
Still for that read-out and setting: the result for B7 reads 0 ratio.
As to B8, the “binding relative to P54AR4-83v2 parent” value was found to be 0.5 ratio.
Still for that read-out and setting: for B9 the value was 0.96 ratio; for B10, 0.87 ratio; for B11, 0.38 ratio.
As to B12, the “binding relative to P54AR4-83v2 parent” value is 0.96 ratio.
On the same count and under the same terms, the result for B13 reads 0.03 ratio.

The next test addresses T1, EGFR (form used in the assay not stated). Description: ELISA, NEM conjugate, 100 nM.
B1: the “binding relative to P54AR4-83v2 parent” value was 1.04 ratio.
The same measure, in the same setting: for B2 the value was 1.01 ratio; for B3, 1.01 ratio; for B4, 1.01 ratio.
On the same count and under the same terms, the result for B5 reads 0.99 ratio.
On the same count and under the same terms, the result for B6 reads 1.03 ratio; that for B7, 0.01 ratio.
As for B8, the “binding relative to P54AR4-83v2 parent” value was 0.9 ratio.
Still for that read-out and setting: the result for B9 reads 1.05 ratio.
Consider B10, for which the “binding relative to P54AR4-83v2 parent” value turned out to be 1.06 ratio.
Still for that read-out and setting: the result for B11 reads 0.64 ratio.
The same measure, in the same setting: for B12 the value was 1.03 ratio.
On the same count and under the same terms, the result for B13 reads 0 ratio.

The target is the same in a further test. Description: ELISA, NEM conjugate, 500 nM.
B1: the “binding relative to P54AR4-83v2 parent” value came out at 0.95 ratio.
On the same count and under the same terms, the result for B2 reads 0.98 ratio; that for B3, 0.95 ratio; that for B4, 0.9 ratio.
On the same count and under the same terms, for B5 the value was 0.95 ratio.
Take B6: the “binding relative to P54AR4-83v2 parent” value was 0.93 ratio.
On the same count and under the same terms, for B7 the value was 0.09 ratio; for B8, 1.02 ratio.
For the molecule B9, the “binding relative to P54AR4-83v2 parent” value is 1.04 ratio.
Still for that read-out and setting: the result for B10 reads 0.93 ratio; that for B11, 0.7 ratio.
Consider B12, for which the “binding relative to P54AR4-83v2 parent” value came to 0.9 ratio.
Same read-out and setting: for B13 the value was 0.03 ratio.
